Laboratory results reported in publication PMC3760020.

Biological target: T1, GFP-p73α wild type, O15350
T1 chain: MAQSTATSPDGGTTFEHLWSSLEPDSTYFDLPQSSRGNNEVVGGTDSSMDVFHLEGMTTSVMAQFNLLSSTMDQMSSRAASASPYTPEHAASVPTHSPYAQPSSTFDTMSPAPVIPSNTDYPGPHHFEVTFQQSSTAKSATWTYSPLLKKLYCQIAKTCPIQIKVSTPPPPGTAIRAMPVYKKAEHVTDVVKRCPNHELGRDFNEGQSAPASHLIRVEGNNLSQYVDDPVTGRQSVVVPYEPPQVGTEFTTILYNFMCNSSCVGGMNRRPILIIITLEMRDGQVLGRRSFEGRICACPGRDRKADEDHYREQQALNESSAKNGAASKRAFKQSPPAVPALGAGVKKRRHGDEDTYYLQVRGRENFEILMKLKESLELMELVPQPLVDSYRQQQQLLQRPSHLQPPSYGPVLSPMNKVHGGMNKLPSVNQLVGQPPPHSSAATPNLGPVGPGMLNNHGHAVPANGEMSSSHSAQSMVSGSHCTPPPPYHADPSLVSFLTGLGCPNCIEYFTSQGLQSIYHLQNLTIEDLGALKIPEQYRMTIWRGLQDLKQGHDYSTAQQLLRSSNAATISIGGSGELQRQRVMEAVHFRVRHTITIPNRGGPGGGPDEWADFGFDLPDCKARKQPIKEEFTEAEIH
Assay: cross-linking
Conditions: remark: other sources report otherwise

stoichiometry N: 4
B1: GFP-p73α wild type, O15350-1 1-636 (natural protein)
chain: MAQSTATSPDGGTTFEHLWSSLEPDSTYFDLPQSSRGNNEVVGGTDSSMDVFHLEGMTTSVMAQFNLLSSTMDQMSSRAASASPYTPEHAASVPTHSPYAQPSSTFDTMSPAPVIPSNTDYPGPHHFEVTFQQSSTAKSATWTYSPLLKKLYCQIAKTCPIQIKVSTPPPPGTAIRAMPVYKKAEHVTDVVKRCPNHELGRDFNEGQSAPASHLIRVEGNNLSQYVDDPVTGRQSVVVPYEPPQVGTEFTTILYNFMCNSSCVGGMNRRPILIIITLEMRDGQVLGRRSFEGRICACPGRDRKADEDHYREQQALNESSAKNGAASKRAFKQSPPAVPALGAGVKKRRHGDEDTYYLQVRGRENFEILMKLKESLELMELVPQPLVDSYRQQQQLLQRPSHLQPPSYGPVLSPMNKVHGGMNKLPSVNQLVGQPPPHSSAATPNLGPVGPGMLNNHGHAVPANGEMSSSHSAQSMVSGSHCTPPPPYHADPSLVSFLTGLGCPNCIEYFTSQGLQSIYHLQNLTIEDLGALKIPEQYRMTIWRGLQDLKQGHDYSTAQQLLRSSNAATISIGGSGELQRQRVMEAVHFRVRHTITIPNRGGPGGGPDEWADFGFDLPDCKARKQPIKEEFTEAEIH
